Series [1] in a line: Western blot of culture media, 24 h. To be noted: glycan lost; control: wild type. In general terms: In western blotting, separated proteins are transferred to a membrane and probed.
Series [2] in a line: mCherry fluorescence in media, 32 h time course. Particulars: glycan lost; control: wild type.
Series [3] can be described thus: gelatin zymography of secreted protein. To be noted: glycan lost; control: wild type.
A short description of series [4]: APMA or MMP-3 zymogen activation time course, Western. Particulars: glycan lost; control: wild type.
Series [5] can be described thus: Western blot of cell lysate. To be noted: glycan lost; control: wild type.
Series [6] is described as follows: fluorogenic substrate kinetics with TIMP-1 titration. Particulars: glycan lost; control: wild type.
The nature of series [7]: mCherry co-localisation with organelle-targeted eGFP. To be noted: glycan lost; control: wild type.
The nature of series [8]: hMMP-9-mCherry fluorescence microscopy. To be noted: control: untreated.
A short description of series [9]: mCherry fluorescence in media, 24 h. Particulars: glycan changed form; control: untreated.

B1: human matrix metalloproteinase 9 (hMMP-9): mS38 (protein)
parent chain: MSLWQPLVLVLLVLGCCFAAPRQRQSTLVLFPGDLRTNLTDRQLAEEYLYRYGYTRVAEMRGESKSLGPALLLLQKQLSLPETGELDSATLKAMRTPRCGVPDLGRFQTFEGDLKWHHHNITYWIQNYSEDLPRAVIDDAFARAFALWSAVTPLTFTRVYSRDADIVIQFGVAEHGDGYPFDGKDGLLAHAFPPGPGIQGDAHFDDDELWSLGKGVVVPTRFGNADGAACHFPFIFEGRSYSACTTDGRSDGLPWCSTTANYDTDDRFGFCPSERLYTQDGNADGKPCQFPFIFQGQSYSACTTDGRSDGYRWCATTANYDRDKLFGFCPTRADSTVMGGNSAGELCVFPFTFLGKEYSTCTSEGRGDGRLWCATTSNFDSDKKWGFCPDQGYSLFLVAAHEFGHALGLDHSSVPEALMYPMYRFTEGPPLHKDDVNGIRHLYGPRPEPEPRPPTTTTPQPTAPPTVCPTGPPTVHPSERPTAGPTGPPSAGPTGPPTAGPSTATTVPLSPVDDACNVNIFDAIAEIGNQLYLFKDGKYWRFSEGRGSRPQGPFLIADKWPALPRKLDSVFEERLSKKLFFFSGRQVWVYTGASVLGPRRLDKLGLGADVAQVTGALRSGRGKMLLFSGRRLWRFDVKAQMVDPRSASEVDRMFPGVPLDTHDVFQYREKAYFCQDRFYWRVSSRSELNQVDQVGYVTYDILQCPED
As for B1, the expression_or_secretion result in series [1] and in [5] was “no change” each time. The “expression_or_secretion, fold_change” value in series [2] is “no change”. Further, the enzymatic_activity entry in series [3] is on record as “no change”. Also, in [4], the “other: proteolytic processing” value is “no change”. Further, the “other: inhibition by TIMP-1” value in series [6] is reported as “no change”. Also, the localisation_or_trafficking result in [7] is “no change”.

B2: human matrix metalloproteinase 9 (hMMP-9): CST (1 mM) (protein)
parent chain: B1 parent chain
On to B2, for which the localisation_or_trafficking result in [8] (glycan changed form) is listed as “changes”. Moreover, in [9], the expression_or_secretion result is “decreases”.

B3: human matrix metalloproteinase 9 (hMMP-9): tunicamycin (250 ng/ml) (protein)
parent chain: B1 parent chain
As for B3, in series [8] (glycan lost), the localisation_or_trafficking entry is “changes”.

The values above are taken from publication PMC4774645.
